The source of these data is paper PMC8096331, “Completion of the gut microbial epi-bile acid pathway” (Gut Microbes, 2021).

Series [1] addresses Clostridium paraputrificum ATCC 25780 bile acid 12β-HSDH (WP_027099077.1) (Clostridium paraputrificum ATCC 25780). In words: SEC; Superose 6 10/300 GL analytical column, 4°C, 50 mM Tris-Cl, 150 mM NaCl, pH 7.5; purified protein loaded at 10 mg/mL, 0.3 ml/min; native mass estimated against Bio-Rad gel filtration standards.
Substrate in series [2]: NC(=O)C1=CN([C@@H]2O[C@H](COP(=O)(O)OP(=O)(O)OC[C@H]3O[C@@H](n4cnc5c(N)ncnc54)[C@H](OP(=O)(O)O)[C@@H]3O)[C@@H](O)[C@H]2O)C=CC1
In words: purified protein. The following applies: reductive direction, 80 µM 12-oxoLCA, 10 nM enzyme, sodium phosphate pH 7.0, varied: cofactor.

Substrate in series [3]: C[C@H](CCC(=O)O)[C@H]1CC[C@H]2[C@@H]3CC[C@@H]4C[C@H](O)CC[C@]4(C)[C@H]3C[C@@H](O)[C@]12C
The series can be described thus: purified protein. Format: biochemical, Clostridium paraputrificum. The following applies: oxidative direction; 300 µM NADP+; 10 nM enzyme; sodium phosphate pH 7.5; pH 7.5.

Substrate in series [4]: [H][C@]12CC[C@]3([H])[C@]([H])(CC(=O)[C@@]4(C)[C@@]3([H])CC[C@]4([H])[C@H](C)CCC(=O)O)[C@@]1(C)CC[C@@H](O)C2
In words: purified protein. The following applies: reductive direction; 150 µM NADPH; 10 nM enzyme; sodium phosphate pH 7.0; pH 7.0. Format: biochemical, Clostridium paraputrificum.

Substrate in series [5]: NC(=O)c1ccc[n+]([C@@H]2O[C@H](COP(=O)(O)OP(=O)(O)OC[C@H]3O[C@@H](n4cnc5c(N)ncnc54)[C@H](OP(=O)(O)O)[C@@H]3O)[C@@H](O)[C@H]2O)c1
The series can be described thus: purified protein. Format: biochemical, Clostridium paraputrificum. The following applies: oxidative direction; 100 µM epiDCA; 10 nM enzyme; sodium phosphate pH 7.5; pH 7.5; varied: cofactor.

In the case of “Clostridium paraputrificum ATCC 25780 bile acid 12β-HSDH (WP_027099077.1) (enzyme)”, the stoichiometry N (in general, the number of molecules, sites or subunits per partner or assembly) in series [1] is 2.

B1: Cp12β-HSDH (Clostridium paraputrificum) (protein)
chain: MKELNEKVAIITGAGQGIGKGIALHLGKRGVKVVCVGRRLDPIVQTVKEVEEAGGQGFAITCDVGNREDVKKVVKATVEKYGTVDVVVNNAQSLPGSAKVEDTTYEQMLTAWQSGTIGSLNMMQECFPYMKDQNEGRIINFASATGMFGYAGQLAYGCNKESIRGLTKIAAKEWAQYNIIVNCVLPGAESPAAKVWAEKFPEKYKEIMEAQPMKRFGDGEDDIGRVIAFLAGPDSKYYTGQCLLVDGGYSIAP
notes: full length, N-terminal His6 tag (pET-28a(+)), E. coli BL21-CodonPlus(DE3) RIPL, TALON purified
Regarding B1, in series [2], the Km (as a rule, the substrate concentration at which the rate is half of its maximum) is given as 29.16 ± 0.42 µM; the Vmax (commonly the top rate of the reaction or transport when substrate is in excess) is 61.8 µmol/min/mg; the kcat – broadly, the number of substrate molecules converted per active site and unit of time at saturation – was determined as 28.1 s⁻¹; the kcat/Km (commonly the turnover number divided by the Michaelis constant) came to 970000 M⁻¹ s⁻¹. In addition, in series [3], the Km is recorded as 44.43 ± 1.13 µM, the maximum rate (Vmax) worked out at 130 µmol/min/mg, the kcat worked out at 59.3 ± 5.47 s⁻¹ and the kcat/Km was found to be 1.34e+06 ± 150000 M⁻¹ s⁻¹. In series [4], the Km turned out to be 18.76 ± 0.40 µM, the Vmax turned out to be 58.4 µmol/min/mg, the kcat is 26.6 ± 1.62 s⁻¹ and the kcat/Km is 1.42e+06 ± 110000 M⁻¹ s⁻¹. In series [5], the Km is given as 36.84 ± 0.55 µM, the Vmax amounted to 97.9 µmol/min/mg, the kcat is 44.6 ± 3.77 s⁻¹ and the kcat/Km was found to be 1.21e+06 ± 120000 M⁻¹ s⁻¹.
